# Experimental data as given in PMC5752578 (Structure (London, England : 1993), 2017).
# T1: Grp1 63-399 E161A part of the Grp1 63-399 E161A Arf6 Q67L fusion (mouse, UniProt O08967 63-399, E161A)
# T1 sequence (looked up): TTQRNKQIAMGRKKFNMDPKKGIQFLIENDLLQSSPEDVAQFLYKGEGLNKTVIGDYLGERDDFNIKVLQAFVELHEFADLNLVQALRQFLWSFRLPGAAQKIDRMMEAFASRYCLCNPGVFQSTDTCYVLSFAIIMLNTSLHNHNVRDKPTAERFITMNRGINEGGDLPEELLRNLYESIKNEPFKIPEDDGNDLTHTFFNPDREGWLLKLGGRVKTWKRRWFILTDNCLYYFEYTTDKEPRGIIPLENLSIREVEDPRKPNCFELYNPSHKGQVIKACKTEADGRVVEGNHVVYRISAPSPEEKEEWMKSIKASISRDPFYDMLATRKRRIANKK
# B1: Arf6 Q67L part of the Grp1-Arf6 fusion constructs, loaded with GppNHp (natural protein, human)
# chain: GKVLSKIFGNKEMRILMLGLDAAGKTTILYKLKLGQSVTTIPTVGFNVETVTYKNVKFNVWDVGGLDKIRPLWRHYYTGTQGLIFVVDCADRDRIDEARQELHRIINDREMRDAIILIFANKQDLPDAMKPHEIQEKLGLTRIRDRNWYVQPSCATSGDGLYEGLTWLTSNYK
# B2: Grp1_(63-390) (mouse Grp1, diglycine splice variant, residues 63-390; fully active, lacking the polybasic region) (domain or fragment, UniProt O08967 63-390, looked up)
# chain: TTQRNKQIAMGRKKFNMDPKKGIQFLIENDLLQSSPEDVAQFLYKGEGLNKTVIGDYLGERDDFNIKVLQAFVELHEFADLNLVQALRQFLWSFRLPGEAQKIDRMMEAFASRYCLCNPGVFQSTDTCYVLSFAIIMLNTSLHNHNVRDKPTAERFITMNRGINEGGDLPEELLRNLYESIKNEPFKIPEDDGNDLTHTFFNPDREGWLLKLGGRVKTWKRRWFILTDNCLYYFEYTTDKEPRGIIPLENLSIREVEDPRKPNCFELYNPSHKGQVIKACKTEADGRVVEGNHVVYRISAPSPEEKEEWMKSIKASISRDPFYDMLAT
# Legend:
# [1] = target: T1, Grp1 63-399 E161A part of the Grp1 …; test: SEC-SAXS
# SEC-SAXS = target: the molecule itself; test: SEC-SAXS
Binder,binding result [1],stoichiometry N (SEC-SAXS)
B1,binds,
B2,,2
